The values that follow come from the Immune Epitope Database (IEDB).

What all share (assay): IEDB peptide-MHC binding, purified MHC/competitive/radioactivity; ≥ and ≤ were set here for values at or beyond the usual limits of such assays
Holding throughout (conditions): source organism: Hepatitis B virus

Assay [1] concerns the target HLA-A*01:01.
The target in assay [2] is HLA-A*29:02.
Assay [3] concerns the target HLA-A*30:02.
In assay [4] the target is HLA-B*51:01.
The target of assay [5] is HLA-B*53:01.
Assay [6] concerns the target HLA-B*54:01.
Assay [7] addresses HLA-A*68:01.
The target in assay [8] is HLA-A*23:01.
Assay [9] has as its target HLA-A*24:02.
The target of assay [10] is HLA-A*31:01.
The target of assay [11] is HLA-A*33:01.
Assay [12] concerns the target HLA-B*35:01.
For assay [13], the target named is HLA-A*02:02.
In assay [14] the target is HLA-A*02:03.
The target of assay [15] is HLA-A*02:06.
Assay [16] concerns the target HLA-A*68:02.

Turning to ASFCGSPY, the values for the IC50 in assay [1], in assay [2] and in assay [3] were 0.0514 µM, 0.0869 µM and 0.0043 µM, respectively.

For the sequence FPHCLAFSYM, the IC50 in [4] was determined as 0.0689 µM; in assay [5], 0.128 µM; in assay [6], 0.214 µM.

Regarding HTLWKAGILYK, the IC50 in [7] was found to be 0.0482 µM.

Turning to LSLDVSAAFY, the half-inhibitory concentration (IC50) in [1] was 0.333 µM; in assay [2], 0.0442 µM.

As for LWFHISCLTF, the IC50 in assay [8] was determined as 0.0077 µM; in assay [9], 0.0065 µM.

As for QAFTFSPTYK, the IC50 in [7] was 0.0071 µM.

For the sequence RFSWLSLLVPF, the IC50 in assay [8] amounted to 0.0126 µM; in [9], 0.101 µM.

Turning to RWMCLRRFII, in [8], the IC50 stood at 0.0075 µM.

Consider SAICSVVRR, for which, in assay [7], the IC50 came to 0.0229 µM.

As for STLPETTVVRR, the IC50 is 0.19 µM in assay [10] and 0.187 µM in assay [11].

As for TPARVTGGVF, the IC50 in assay [12] amounted to 0.0716 µM.

Regarding WMMWYWGPSLY, the concentration for half-maximal inhibition (IC50) in assay [2] came to 0.133 µM; in assay [3], 0.0464 µM.

With YMDDVVLGV, the IC50 in assay [13] is 0.0906 µM; in assay [14] it was 0.0115 µM; in assay [15] it was 0.0906 µM; in [16], 0.422 µM.

For YPALMPLYACI, the figures for the IC50 in assay [4] and in [6] were 0.119 µM and 0.111 µM, respectively.

As a reminder, the IC50 is the midpoint of a concentration-inhibition curve.
